Reference: PMC2133180

Target: perlecan purified from Englebreth-Holm-Swarm tumor (UniProt Q05793)
Assay: SPR

UniProt Q05793, sequence (Q05793 22-3707): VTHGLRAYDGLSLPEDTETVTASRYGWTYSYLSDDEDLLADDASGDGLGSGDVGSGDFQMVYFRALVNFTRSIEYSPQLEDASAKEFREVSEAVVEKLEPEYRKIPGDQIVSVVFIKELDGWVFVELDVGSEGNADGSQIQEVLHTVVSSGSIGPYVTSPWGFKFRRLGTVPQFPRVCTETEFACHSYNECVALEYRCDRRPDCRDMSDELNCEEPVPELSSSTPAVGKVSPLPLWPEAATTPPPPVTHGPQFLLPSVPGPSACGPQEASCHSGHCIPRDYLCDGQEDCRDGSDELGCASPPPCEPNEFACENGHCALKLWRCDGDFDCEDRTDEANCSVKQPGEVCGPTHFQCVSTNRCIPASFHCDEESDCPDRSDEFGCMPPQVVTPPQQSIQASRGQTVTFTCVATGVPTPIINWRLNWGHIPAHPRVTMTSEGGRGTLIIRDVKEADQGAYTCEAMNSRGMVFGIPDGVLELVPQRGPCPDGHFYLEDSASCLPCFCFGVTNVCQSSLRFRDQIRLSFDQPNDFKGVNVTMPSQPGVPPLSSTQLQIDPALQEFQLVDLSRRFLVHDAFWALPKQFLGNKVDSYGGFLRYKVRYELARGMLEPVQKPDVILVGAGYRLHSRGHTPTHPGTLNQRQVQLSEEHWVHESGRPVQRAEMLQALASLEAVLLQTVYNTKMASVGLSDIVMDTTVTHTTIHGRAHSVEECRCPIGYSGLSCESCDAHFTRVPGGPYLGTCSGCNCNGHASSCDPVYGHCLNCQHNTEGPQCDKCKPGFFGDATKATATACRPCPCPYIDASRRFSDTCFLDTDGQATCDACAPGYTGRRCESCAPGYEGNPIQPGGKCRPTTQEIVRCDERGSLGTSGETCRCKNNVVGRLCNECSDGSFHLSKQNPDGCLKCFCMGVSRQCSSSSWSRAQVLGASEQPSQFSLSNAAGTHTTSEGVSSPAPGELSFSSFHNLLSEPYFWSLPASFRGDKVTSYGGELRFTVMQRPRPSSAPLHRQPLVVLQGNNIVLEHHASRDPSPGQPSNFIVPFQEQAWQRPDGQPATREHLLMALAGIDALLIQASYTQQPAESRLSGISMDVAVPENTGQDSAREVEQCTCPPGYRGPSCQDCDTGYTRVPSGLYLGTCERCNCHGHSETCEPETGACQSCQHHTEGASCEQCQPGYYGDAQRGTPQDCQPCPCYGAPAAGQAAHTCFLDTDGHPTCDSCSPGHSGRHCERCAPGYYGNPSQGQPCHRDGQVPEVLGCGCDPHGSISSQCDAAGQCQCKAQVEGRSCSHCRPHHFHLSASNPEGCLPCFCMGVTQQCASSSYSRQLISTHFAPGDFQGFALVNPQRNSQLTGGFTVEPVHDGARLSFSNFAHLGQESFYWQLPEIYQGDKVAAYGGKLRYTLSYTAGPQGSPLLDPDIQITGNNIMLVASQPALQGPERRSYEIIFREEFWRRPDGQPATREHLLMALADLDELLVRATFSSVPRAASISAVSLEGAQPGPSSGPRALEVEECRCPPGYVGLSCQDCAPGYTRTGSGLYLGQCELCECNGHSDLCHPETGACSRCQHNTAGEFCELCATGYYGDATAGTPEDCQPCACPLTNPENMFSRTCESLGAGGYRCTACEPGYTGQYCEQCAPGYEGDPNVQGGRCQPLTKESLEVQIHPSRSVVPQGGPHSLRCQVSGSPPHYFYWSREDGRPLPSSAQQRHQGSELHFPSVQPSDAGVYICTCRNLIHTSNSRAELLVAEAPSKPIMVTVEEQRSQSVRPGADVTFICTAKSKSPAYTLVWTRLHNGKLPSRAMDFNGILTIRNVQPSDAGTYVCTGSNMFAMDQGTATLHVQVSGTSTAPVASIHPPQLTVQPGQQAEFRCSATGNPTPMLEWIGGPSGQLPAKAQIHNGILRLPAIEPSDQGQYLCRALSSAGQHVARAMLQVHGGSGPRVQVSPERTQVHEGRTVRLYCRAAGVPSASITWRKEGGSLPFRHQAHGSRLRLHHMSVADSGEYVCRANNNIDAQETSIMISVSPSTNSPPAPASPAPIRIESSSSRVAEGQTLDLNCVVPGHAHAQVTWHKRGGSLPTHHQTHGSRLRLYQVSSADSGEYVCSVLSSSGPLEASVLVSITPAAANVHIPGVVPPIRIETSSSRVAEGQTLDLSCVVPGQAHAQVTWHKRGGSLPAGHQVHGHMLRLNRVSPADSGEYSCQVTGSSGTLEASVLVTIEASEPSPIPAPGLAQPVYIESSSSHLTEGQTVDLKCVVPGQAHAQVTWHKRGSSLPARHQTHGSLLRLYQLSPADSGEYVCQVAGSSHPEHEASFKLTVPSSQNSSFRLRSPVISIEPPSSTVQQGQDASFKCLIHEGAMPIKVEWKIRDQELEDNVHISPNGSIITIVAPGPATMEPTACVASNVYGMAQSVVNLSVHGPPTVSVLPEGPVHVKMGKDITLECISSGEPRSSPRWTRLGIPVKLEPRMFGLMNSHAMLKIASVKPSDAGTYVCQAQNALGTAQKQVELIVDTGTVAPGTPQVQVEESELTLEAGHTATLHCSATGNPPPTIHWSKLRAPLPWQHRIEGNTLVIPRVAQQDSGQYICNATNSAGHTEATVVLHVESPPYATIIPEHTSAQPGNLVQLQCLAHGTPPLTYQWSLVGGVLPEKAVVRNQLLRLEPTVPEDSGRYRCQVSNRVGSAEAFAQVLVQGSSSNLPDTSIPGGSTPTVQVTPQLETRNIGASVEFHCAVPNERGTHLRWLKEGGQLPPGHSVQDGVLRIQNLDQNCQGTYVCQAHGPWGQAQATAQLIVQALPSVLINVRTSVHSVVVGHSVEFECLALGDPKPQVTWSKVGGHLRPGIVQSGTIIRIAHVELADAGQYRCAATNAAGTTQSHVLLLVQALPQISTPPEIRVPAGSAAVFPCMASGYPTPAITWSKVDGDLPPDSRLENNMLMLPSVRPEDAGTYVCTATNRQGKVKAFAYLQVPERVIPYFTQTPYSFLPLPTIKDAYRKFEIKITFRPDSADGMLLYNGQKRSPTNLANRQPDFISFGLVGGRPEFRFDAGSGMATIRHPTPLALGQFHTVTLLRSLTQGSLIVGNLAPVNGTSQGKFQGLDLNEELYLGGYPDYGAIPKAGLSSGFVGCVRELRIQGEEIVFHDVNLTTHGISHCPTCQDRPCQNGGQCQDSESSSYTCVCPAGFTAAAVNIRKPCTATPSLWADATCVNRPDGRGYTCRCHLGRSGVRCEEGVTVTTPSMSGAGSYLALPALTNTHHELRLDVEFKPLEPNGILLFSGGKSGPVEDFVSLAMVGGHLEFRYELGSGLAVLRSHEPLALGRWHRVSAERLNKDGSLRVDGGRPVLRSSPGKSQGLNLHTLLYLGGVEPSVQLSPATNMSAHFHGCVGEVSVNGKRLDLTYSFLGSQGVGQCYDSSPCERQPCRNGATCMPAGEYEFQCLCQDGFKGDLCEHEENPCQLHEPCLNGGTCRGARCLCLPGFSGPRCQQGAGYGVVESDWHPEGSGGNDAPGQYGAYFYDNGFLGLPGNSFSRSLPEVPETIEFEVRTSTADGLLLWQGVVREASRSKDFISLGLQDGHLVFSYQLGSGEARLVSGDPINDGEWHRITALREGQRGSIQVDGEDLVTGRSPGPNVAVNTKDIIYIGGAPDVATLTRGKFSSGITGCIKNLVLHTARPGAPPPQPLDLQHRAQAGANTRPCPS

quail A12 collagenic-tailed acetylcholinesterase (asymmetric form) (complex)
fold change in RU over the G2/G4 value: 270 fold
